Patent publication US20240261333A1 (published 2024)
Values belong to the binder of their own block, whether it stands above or below them.

How the values were obtained:
Test in all cases: co-IP with anti-FLAG, C-FLAG B3GNT2, mass spectrometry
HNRNPM = molecular target: T1, HNRNPM (human, UniProt P52272 2-730)
T1 construct: also called NP_005959.2 (+1)
T1 sequence (looked up): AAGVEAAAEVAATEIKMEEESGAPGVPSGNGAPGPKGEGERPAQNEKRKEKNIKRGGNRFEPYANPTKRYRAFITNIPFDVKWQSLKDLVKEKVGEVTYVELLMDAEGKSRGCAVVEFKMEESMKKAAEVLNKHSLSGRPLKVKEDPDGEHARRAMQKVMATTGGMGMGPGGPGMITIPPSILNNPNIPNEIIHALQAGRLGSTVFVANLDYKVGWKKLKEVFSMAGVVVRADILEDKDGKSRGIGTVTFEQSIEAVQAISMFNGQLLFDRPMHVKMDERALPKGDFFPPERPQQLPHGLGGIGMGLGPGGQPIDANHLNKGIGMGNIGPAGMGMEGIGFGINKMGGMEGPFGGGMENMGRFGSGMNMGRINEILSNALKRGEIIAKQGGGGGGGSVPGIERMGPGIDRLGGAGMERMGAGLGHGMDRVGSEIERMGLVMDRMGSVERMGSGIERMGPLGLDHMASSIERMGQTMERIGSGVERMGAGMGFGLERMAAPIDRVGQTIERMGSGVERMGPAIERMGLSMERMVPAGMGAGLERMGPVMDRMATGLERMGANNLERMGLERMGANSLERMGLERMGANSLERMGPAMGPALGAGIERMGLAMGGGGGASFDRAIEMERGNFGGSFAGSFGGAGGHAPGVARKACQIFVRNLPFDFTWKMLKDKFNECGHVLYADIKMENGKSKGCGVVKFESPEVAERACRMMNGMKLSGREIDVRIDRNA
Experimental: (§1) Cells were plated in 10-cm cell culture dishes and grown to 60-80% confluency. For each condition, two biological replicates were harvested for co-IP. Cells were washed with PBS and 4 mL of lysis buffer (20 mM HEPES, 1% Triton X-100, 150 mM NaCl, 1 mM EDTA, and 10% glycerol) containing protease inhibitor cocktail was added. Cells were scraped and lysate was incubated at 4° C. under rotary agitation for 1 h. Lysate was centrifuged at 14,000×g for 10 min at 4° C. Supernatant was transferred to a new tube and an aliquot was taken as the input. […] For Western blots, 10 μg/mL Chicken Anti-FLAG (Aves labs ET-DY100) and IgY control (R&D Systems AB-101-C) antibodies were biotinylated (Thermo Fisher Scientific 90407) and added to the respective conditions. Lysates with antibodies were incubated at 4° C. under rotary agitation overnight. For each mL of lysate, 50 μL of Pierce Protein A/G Magnetic Beads (Mass spectrometry; Thermo Fisher Scientific 88803) or Pierce Streptavidin Magnetic Beads (Western blot; Thermo Fisher Scientific 88817) was washed twice with lysis buffer. Lysates with antibodies were added to the beads and incubated at 4° C. under rotary agitation for 4 h. Beads were washed with lysis buffer 3 times and resuspended in lysis buffer for storage.
(§2) Magnetic beads were resuspended in 100 mM Tris pH 7.8, reduced, alkylated and digested with trypsin at 37° ° C. overnight. This solution was subjected to solid phase extraction to concentrate the peptides and remove unwanted reagents followed by injection onto a Shimadzu HPLC with fraction collector. Eight fractions were collected and after concentration were injected on a Waters NanoAcquity HPLC equipped with a self-packed Aeris 3 μm C18 analytical column 0.075 mm by 20 cm, (Phenomenex). Peptides were eluted using standard reverse-phase gradients. The effluent from the column was analyzed using a Thermo Orbitrap Elite mass spectrometer (nanospray configuration) operated in a data dependent manner for 54 minutes. The resulting fragmentation spectra were correlated against the known database using Proteome Discover 1.4 (Thermo Fisher Scientific).

DDX1 = molecular target: T2, DDX1 (human, UniProt Q92499 1-740)
T2 construct: also called NP_004930.1
T2 sequence (looked up): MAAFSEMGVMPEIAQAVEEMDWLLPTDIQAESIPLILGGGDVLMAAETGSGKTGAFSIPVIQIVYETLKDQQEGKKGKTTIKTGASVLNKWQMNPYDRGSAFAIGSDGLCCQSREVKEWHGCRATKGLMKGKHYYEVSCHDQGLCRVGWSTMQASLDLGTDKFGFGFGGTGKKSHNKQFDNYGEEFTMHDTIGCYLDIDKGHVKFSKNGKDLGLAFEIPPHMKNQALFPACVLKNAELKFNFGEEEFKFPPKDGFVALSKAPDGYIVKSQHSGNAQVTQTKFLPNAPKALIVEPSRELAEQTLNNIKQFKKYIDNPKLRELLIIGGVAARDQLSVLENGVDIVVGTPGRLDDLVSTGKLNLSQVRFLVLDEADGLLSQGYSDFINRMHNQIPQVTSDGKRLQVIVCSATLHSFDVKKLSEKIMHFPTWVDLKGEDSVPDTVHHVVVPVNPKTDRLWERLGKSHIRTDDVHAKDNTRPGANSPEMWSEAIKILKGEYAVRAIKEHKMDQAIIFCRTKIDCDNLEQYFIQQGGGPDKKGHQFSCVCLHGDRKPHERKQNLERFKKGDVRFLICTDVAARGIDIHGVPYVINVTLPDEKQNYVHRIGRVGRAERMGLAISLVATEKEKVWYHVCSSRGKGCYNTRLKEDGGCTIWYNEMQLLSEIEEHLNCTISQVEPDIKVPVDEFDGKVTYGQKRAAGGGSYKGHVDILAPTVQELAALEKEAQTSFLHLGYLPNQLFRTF
Experimental: as §1, §2

PSMA3 = molecular target: T3, PSMA3 (human, UniProt P25788 2-255)
T3 construct: also called NP_002779.1 (+1)
T3 sequence (looked up): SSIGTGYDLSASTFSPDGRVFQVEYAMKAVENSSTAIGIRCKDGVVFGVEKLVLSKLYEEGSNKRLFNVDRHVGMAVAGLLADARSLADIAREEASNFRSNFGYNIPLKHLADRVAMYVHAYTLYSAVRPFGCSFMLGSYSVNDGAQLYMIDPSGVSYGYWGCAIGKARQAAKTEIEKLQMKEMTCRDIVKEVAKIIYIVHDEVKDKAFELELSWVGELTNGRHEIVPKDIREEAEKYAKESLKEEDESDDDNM
Experimental: as §1, §2

- co-IP mass spectrometry count (HNRNPM): 8
- co-IP mass spectrometry count (DDX1): 4
B1: C-terminal FLAG tagged B3GNT2 (enzyme, human, UniProt Q9NY97 1-397, looked up)
chain: MSVGRRRIKLLGILMMANVFIYFIMEVSKSSSQEKNGKGEVIIPKEKFWKISTPPEAYWNREQEKLNRQYNPILSMLTNQTGEAGRLSNISHLNYCEPDLRVTSVVTGFNNLPDRFKDFLLYLRCRNYSLLIDQPDKCAKKPFLLLAIKSLTPHFARRQAIRESWGQESNAGNQTVVRVFLLGQTPPEDNHPDLSDMLKFESEKHQDILMWNYRDTFFNLSLKEVLFLRWVSTSCPDTEFVFKGDDDVFVNTHHILNYLNSLSKTKAKDLFIGDVIHNAGPHRDKKLKYYIPEVVYSGLYPPYAGGGGFLYSGHLALRLYHITDQVHLYPIDDVYTGMCLQKLGLVPEKHKGFRTFDIEEKNKNNICSYVDLMLVHSRKPQEMIDIWSQLQSAHLKC
notes: FLAG-tagged ORF overexpressed in cells; pulled down from lysate with mouse anti-FLAG; also called C-FLAG B3GNT2; C-term flag; not shown: C-terminal FLAG tag

B2: C-terminal FLAG tagged B3GNT2 (enzyme, human, UniProt Q9NY97 1-397, looked up)
chain: B1 chain
notes: FLAG-tagged ORF overexpressed in A375 cells; pulled down from the lysate with mouse anti-FLAG; also called C-FLAG B3GNT2; C-term flag; not shown: C-terminal FLAG tag
- co-IP/MS count, C-term flag (PSMA3): 0
